Values of other authors, collected in patent US20230312927A1, “POLY(SARCOSINE) POLYMER EXCIPIENTS” (CALUSA BIO, LLC, priority 2021, published 2023).

System: anti-drug antibodies (ADAs)
Conditions: share of anti-drug antibodies that are neutralizing; van Schie et al. Ann. Rheum. Dis. 2015

For adalimumab [Humira], the “ADAs shown to be neutralizing” value is listed as 97%.
In the case of infliximab [Remicade], the “ADAs shown to be neutralizing” value is listed as 90%.
